This passage reports Δd2 results from patent US10215752B2, “Nanotube array for optical detection of protein-protein interactions” (MASSACHUSETTS INSTITUTE OF TECHNOLOGY, priority 2010, dated 2019).

The test deals with p16 (Homo sapiens, UniProt Q8N726). Kind of test: Protein-protein interaction on SWNT/CHI array, Förster distance calculation. The settings on record: distance change after analyte protein p16, Förster equation.
p16, sequence (Q8N726 with tags, fused parts or gaps): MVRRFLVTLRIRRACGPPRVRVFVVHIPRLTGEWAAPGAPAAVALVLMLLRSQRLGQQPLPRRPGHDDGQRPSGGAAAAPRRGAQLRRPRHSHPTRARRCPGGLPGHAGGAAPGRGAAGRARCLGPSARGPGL

Experimental: Reaction mixtures for cell-free protein expression were added to each array wells. The fluorescent intensities of each SWNT/CHI well were taken to track the intensity changes. To initiate protein synthesis, 1 μl PCR-amplified DNAs were added to each well a humidified chamber at 37° C. for 2 hours. The arrays were washed three times for 10 min each with PBS buffer (pH 7.4, 100 mM) at RT and then PL spectra were taken. To analyze protein-protein interaction on SWNT/XHI array, anti-Histag antibody or cell-free expressed protein mixtures were added to each well and then PL spectra were taken to compare the intensity change.
Near-infrared photoluminescence spectra were acquired using 785 nm excitation and an Acton SP-150 spectrograph coupled to a Princeton instruments OMA V InGaAs detector or with Kaiser Holospec f/1.8 Imaging Spectrograph (Kaiser Optical).

B1: CDK4: human derived protein (ExPASy P11802), on-chip cell-free expressed with His-tag (protein, UniProt P11802 2-303, looked up)
Cyclin-dependent kinase 4: ATSRYEPVAEIGVGAYGTVYKARDPHSGHFVALKSVRVPNGGGGGGGLPISTVREVALLRRLEAFEHPNVVRLMDVCATSRTDREIKVTLVFEHVDQDLRTYLDKAPPPGLPAETIKDLMRQFLRGLDFLHANCIVHRDLKPENILVTSGGTVKLADFGLARIYSYQMALTPVVVTLWYRAPEVLLQSTYATPVDMWSVGCIFAEMFRRKPLFCGNSEADQLGKIFDLIGLPPEDDWPRDVSLPRGAFPPRGPRPVQSVVPEMEESGAQLLLEMLTFNPHKRISAFRALQHSYLHKDEGNPE
modifications: His-tag
Consider B1, for which the Δd2 is listed as 0.06338.
